The values that follow come from publication doi:10.1101/2024.10.18.618978v3.

Substrate in the data set “purified protein”: NCCCNCCCCNCCCN
Kind of data set: purified protein. As to conditions: 1 mM AcCoA, pH 7.5, 37 °C.

Substrate in data set [1]: NCCCNCCCCNCCCN
Kind of data set: colorimetric DTNB SSAT assay. Type of data set: biochemical, Staphylococcus aureus. As to conditions: 1 mM AcCoA, pH 7.5, 37 °C, approximate value given in Methods.

B1: SpeG (Staphylococcus aureus subsp. aureus USA300) (protein)
chain: MKLRALEYSDLLFVHELNNEYSIMSYWFEEPYESLTELQHLFDKHLLDESERRFIVEDENQVVGIVELVEINYIHRNCEIQIIIKPEFSGKGYAKFAFEKAIIYAFNILNMHKIYLYVDADNKKAIHIYESQGFKTEGLLKEQFYTKGKYKDAYFMSLLKSEYIL
For the protein B1, the Km in “purified protein” (Michaelis-Menten fit) came out at 1312 ± 348.1 µM. Moreover, the K0.5 in the data set “purified protein” (allosteric sigmoidal fit) is 757.5 ± 63.35 µM.

B2: PaiASa (Staphylococcus aureus subsp. aureus USA300) (protein)
chain: MAGIIKEISEQNASELVELATRTFYDTFGSYYDDKDFDQFFKDNYTVEKFTQEINHVDSFHYFYQEDGANVGYIKMNINSAQTEEMGETYLEVQRIYFLKDFQGGGRGSQLIELAEKIAQEHNKHKIWLGVWEHNPRAQAFYKRHGFKVVGEHHFQTGDVTDTDLIMEKEL
As to B2, in data set [1], the Km is 2000 µM.
